What was measured:
[1] = target: T1, human α-CGRP (Homo sapiens, UniProt P06881); test: Biacore SPR affinity of Fab fragments to N-biotinylated human α-CGRP on SA chip; format: binding; settings: 37° C., screening mode except underlined values
T1 construct: 1-37 (WT); purchased GenScript Corporation or Global Peptide Services
T1 sequence (P06881 83-119 limits assumed): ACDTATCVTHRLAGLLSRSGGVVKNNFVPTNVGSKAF
Method in brief: (§1)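 HBS-EP pH 7.4 running buffer at 25° C. or 37° C.; N-biotinylated CGRP captured on streptavidin SA chip (<50 RU for kinetics), Fab titrated over surface with regeneration by 25 mM NaOH/25% ethanol. Titrations globally fit to 1:1 Langmuir model; KD=koff/kon, with 2-hour dissociation for very slow off-rates.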

[2] = target: T2, rat α-CGRP (Rattus norvegicus, UniProt P01256); test: Biacore SPR affinity of Fab fragments to N-biotinylated rat α-CGRP on SA chip; format: binding; settings: 37° C., screening mode except underlined values
T2 construct: rat α (1-37); purchased GenScript Corporation or Global Peptide Services
T2 sequence (P01256 83-119 limits assumed): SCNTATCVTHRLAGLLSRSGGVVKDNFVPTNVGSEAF
Method in brief: as §1

Row | Molecule | α-human koff [1] [s⁻¹] | α-rat koff [2] [s⁻¹]
1 | M37: G1 variant; L1 R28N T30S; H2 A57G; HC-FW3 L99T A100V (antibody, V domains shown) VH: EVQLVESGGGLVQPGGSLRLSCAASGFTFSNYWISWVRQAPGKGLEWVAEIRSESDGSATHYAEAVKGRFTISRDNAKNSLYLQMNSLRAEDTAVYYCTVYFDYGLAIQNYWGQGTLVTVSS VL: EIVLTQSPATLSLSPGERATLSCKASKNVSTYVSWYQQKPGQAPRLLIYGASNRYLGIPARFSGSGSGTDFTLTISSLEPEDFAVYYCSQSYNYPYTFGQGTKLEIK | 0.000226 | 0.00145
2 | M36: G1 variant; L1 R28N T30R; HC-FW3 L99T A100V (antibody, V domains shown) VH: EVQLVESGGGLVQPGGSLRLSCAASGFTFSNYWISWVRQAPGKGLEWVAEIRSESDASATHYAEAVKGRFTISRDNAKNSLYLQMNSLRAEDTAVYYCTVYFDYGLAIQNYWGQGTLVTVSS VL: EIVLTQSPATLSLSPGERATLSCKASKNVRTYVSWYQQKPGQAPRLLIYGASNRYLGIPARFSGSGSGTDFTLTISSLEPEDFAVYYCSQSYNYPYTFGQGTKLEIK | 0.000239 | 0.00479
3 | M42: G1 variant; L1 R28N; L2 G50A L56T; H2 E54K A57N H61F; HC-FW3 L99T A100V (antibody, V domains shown) VH: EVQLVESGGGLVQPGGSLRLSCAASGFTFSNYWISWVRQAPGKGLEWVAEIRSKSDNSATFYAEAVKGRFTISRDNAKNSLYLQMNSLRAEDTAVYYCTVYFDYGLAIQNYWGQGTLVTVSS VL: EIVLTQSPATLSLSPGERATLSCKASKNVTTYVSWYQQKPGQAPRLLIYAASNRYTGIPARFSGSGSGTDFTLTISSLEPEDFAVYYCSQSYNYPYTFGQGTKLEIK | 0.000417 | 0.00752
4 | M40: G1 variant; L1 R28N; L2 G50A L56T; H2 E54K A57L; HC-FW3 L99T A100V (antibody, V domains shown) VH: EVQLVESGGGLVQPGGSLRLSCAASGFTFSNYWISWVRQAPGKGLEWVAEIRSKSDLSATHYAEAVKGRFTISRDNAKNSLYLQMNSLRAEDTAVYYCTVYFDYGLAIQNYWGQGTLVTVSS VL: EIVLTQSPATLSLSPGERATLSCKASKNVTTYVSWYQQKPGQAPRLLIYAASNRYTGIPARFSGSGSGTDFTLTISSLEPEDFAVYYCSQSYNYPYTFGQGTKLEIK | 0.00128 | 0.36
5 | M45: G1 variant; L1 R28N; L2 G50A L56T; H2 E54K A57N S58E E64D; HC-FW3 L99T A100V (antibody, V domains shown) VH: EVQLVESGGGLVQPGGSLRLSCAASGFTFSNYWISWVRQAPGKGLEWVAEIRSKSDNEATHYADAVKGRFTISRDNAKNSLYLQMNSLRAEDTAVYYCTVYFDYGLAIQNYWGQGTLVTVSS VL: EIVLTQSPATLSLSPGERATLSCKASKNVTTYVSWYQQKPGQAPRLLIYAASNRYTGIPARFSGSGSGTDFTLTISSLEPEDFAVYYCSQSYNYPYTFGQGTKLEIK | 0.000211 | 0.00558
6 | M38: G1 variant; L1 R28N T30W; HC-FW3 L99T A100V (antibody, V domains shown) VH: EVQLVESGGGLVQPGGSLRLSCAASGFTFSNYWISWVRQAPGKGLEWVAEIRSESDASATHYAEAVKGRFTISRDNAKNSLYLQMNSLRAEDTAVYYCTVYFDYGLAIQNYWGQGTLVTVSS VL: EIVLTQSPATLSLSPGERATLSCKASKNVWTYVSWYQQKPGQAPRLLIYGASNRYLGIPARFSGSGSGTDFTLTISSLEPEDFAVYYCSQSYNYPYTFGQGTKLEIK | 0.000218 | 0.00511
7 | M39: G1 variant; L1 R28N; L2 G50A L56T; H2 A57N S58Y; HC-FW3 L99T A100V (antibody, V domains shown) VH: EVQLVESGGGLVQPGGSLRLSCAASGFTFSNYWISWVRQAPGKGLEWVAEIRSESDNYATHYAEAVKGRFTISRDNAKNSLYLQMNSLRAEDTAVYYCTVYFDYGLAIQNYWGQGTLVTVSS VL: EIVLTQSPATLSLSPGERATLSCKASKNVTTYVSWYQQKPGQAPRLLIYAASNRYTGIPARFSGSGSGTDFTLTISSLEPEDFAVYYCSQSYNYPYTFGQGTKLEIK | 0.000425 | 0.00995

Next, values leading:

Row | α-human koff [1] [s⁻¹] | α-rat koff [2] [s⁻¹] | Molecule
8 | 0.00075 | 0.00922 | M33: G1 variant; L1 R28N T30G; H2 E54K A57N S58G; HC-FW3 L99T A100V (antibody, V domains shown) VH: EVQLVESGGGLVQPGGSLRLSCAASGFTFSNYWISWVRQAPGKGLEWVAEIRSKSDNGATHYAEAVKGRFTISRDNAKNSLYLQMNSLRAEDTAVYYCTVYFDYGLAIQNYWGQGTLVTVSS VL: EIVLTQSPATLSLSPGERATLSCKASKNVGTYVSWYQQKPGQAPRLLIYGASNRYLGIPARFSGSGSGTDFTLTISSLEPEDFAVYYCSQSYNYPYTFGQGTKLEIK
9 | 0.000646 | 0.00217 | M34: G1 variant; L1 R28N T30G; H2 E54K A57N S58T; HC-FW3 L99T A100V (antibody, V domains shown) VH: EVQLVESGGGLVQPGGSLRLSCAASGFTFSNYWISWVRQAPGKGLEWVAEIRSKSDNTATHYAEAVKGRFTISRDNAKNSLYLQMNSLRAEDTAVYYCTVYFDYGLAIQNYWGQGTLVTVSS VL: EIVLTQSPATLSLSPGERATLSCKASKNVGTYVSWYQQKPGQAPRLLIYGASNRYLGIPARFSGSGSGTDFTLTISSLEPEDFAVYYCSQSYNYPYTFGQGTKLEIK
10 | 0.00021 | 0.00613 | M44: G1 variant; L1 R28N; L2 G50A L56T; H2 E54K A57N S58E; HC-FW3 L99T A100V (antibody, V domains shown) VH: EVQLVESGGGLVQPGGSLRLSCAASGFTFSNYWISWVRQAPGKGLEWVAEIRSKSDNEATHYAEAVKGRFTISRDNAKNSLYLQMNSLRAEDTAVYYCTVYFDYGLAIQNYWGQGTLVTVSS VL: EIVLTQSPATLSLSPGERATLSCKASKNVTTYVSWYQQKPGQAPRLLIYAASNRYTGIPARFSGSGSGTDFTLTISSLEPEDFAVYYCSQSYNYPYTFGQGTKLEIK
11 | 0.00021 | 0.00453 | M41: G1 variant; L1 R28N; L2 G50A L56T; H2 E54K A57N E64D; HC-FW3 L99T A100V (antibody, V domains shown) VH: EVQLVESGGGLVQPGGSLRLSCAASGFTFSNYWISWVRQAPGKGLEWVAEIRSKSDNSATHYADAVKGRFTISRDNAKNSLYLQMNSLRAEDTAVYYCTVYFDYGLAIQNYWGQGTLVTVSS VL: EIVLTQSPATLSLSPGERATLSCKASKNVTTYVSWYQQKPGQAPRLLIYAASNRYTGIPARFSGSGSGTDFTLTISSLEPEDFAVYYCSQSYNYPYTFGQGTKLEIK
12 | 0.000263 | 0.00453 | M43: G1 variant; L1 R28N; L2 G50A L56T; H2 E54K A57N S58C; HC-FW3 L99T A100V (antibody, V domains shown) VH: EVQLVESGGGLVQPGGSLRLSCAASGFTFSNYWISWVRQAPGKGLEWVAEIRSKSDNCATHYAEAVKGRFTISRDNAKNSLYLQMNSLRAEDTAVYYCTVYFDYGLAIQNYWGQGTLVTVSS VL: EIVLTQSPATLSLSPGERATLSCKASKNVTTYVSWYQQKPGQAPRLLIYAASNRYTGIPARFSGSGSGTDFTLTISSLEPEDFAVYYCSQSYNYPYTFGQGTKLEIK
13 | 0.000339 | 0.00399 | M35: G1 variant; L1 R28N T30G; H2 E54K A57S; HC-FW3 L99T A100V (antibody, V domains shown) VH: EVQLVESGGGLVQPGGSLRLSCAASGFTFSNYWISWVRQAPGKGLEWVAEIRSKSDSSATHYAEAVKGRFTISRDNAKNSLYLQMNSLRAEDTAVYYCTVYFDYGLAIQNYWGQGTLVTVSS VL: EIVLTQSPATLSLSPGERATLSCKASKNVGTYVSWYQQKPGQAPRLLIYGASNRYLGIPARFSGSGSGTDFTLTISSLEPEDFAVYYCSQSYNYPYTFGQGTKLEIK
